Source: patent publication US20230265151A1, “GIP/GLP1 CO-AGONIST COMPOUNDS” (priority 2020, published 2023)
*1 amine or outer side, *2 acyl side, *3 side chain or, on linkers, in order; H or OH if unused. Where no end group is shown, it is not given here. Side-chain parts run from the residue outwards. [ ]: non-standard residue; d: D form. The star is where a group is joined. Decanoyl(10-(4-HOOC-PhO)) = O=C(O)c1ccc(OCCCCCCCCCC(=O)*)cc1; αMePhe(2-F) = C[C@](N)(Cc1ccccc1F)C(=O)O; γGlu = O=C(O)[C@H](CCC(=O)[*:2])N[*:1]; C14 diacid = O=C(O)CCCCCCCCCCCCC(=O)*; αMeY = C[C@](N)(Cc1ccc(O)cc1)C(=O)O; αMeL = CC(C)C[C@](C)(N)C(=O)O; Orn = NCCC[C@H](N)C(=O)O; AEEA = NCCOCCOCC(=O)O; Aib = CC(C)(N)C(=O)O

Tests used:
Assay in all cases: cell-based or functional assay
[1] = molecular target: T1, human GIP receptor (human, UniProt P48546 22-466)
T1 sequence (looked up): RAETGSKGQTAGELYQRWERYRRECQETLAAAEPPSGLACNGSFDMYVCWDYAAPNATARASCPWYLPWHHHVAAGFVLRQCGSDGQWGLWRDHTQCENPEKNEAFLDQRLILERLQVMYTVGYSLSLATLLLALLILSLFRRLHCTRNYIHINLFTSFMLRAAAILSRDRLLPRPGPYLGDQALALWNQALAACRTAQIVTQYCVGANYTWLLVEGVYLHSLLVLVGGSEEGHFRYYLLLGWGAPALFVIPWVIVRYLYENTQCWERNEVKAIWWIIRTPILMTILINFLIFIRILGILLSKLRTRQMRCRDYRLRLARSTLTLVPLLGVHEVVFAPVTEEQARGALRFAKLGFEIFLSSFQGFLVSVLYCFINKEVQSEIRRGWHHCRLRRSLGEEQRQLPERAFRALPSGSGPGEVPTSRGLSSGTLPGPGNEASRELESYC

[2] = molecular target: human GLP-1 receptor (human, UniProt P43220 24-463)
[3] = molecular target: human GLP-1 receptor (human, UniProt P43220 24-463); remark: listed apart in the source
[4] = molecular target: T2, human GIP receptor (human, UniProt P48546 22-466); remark: listed apart in the source
T2 sequence (looked up): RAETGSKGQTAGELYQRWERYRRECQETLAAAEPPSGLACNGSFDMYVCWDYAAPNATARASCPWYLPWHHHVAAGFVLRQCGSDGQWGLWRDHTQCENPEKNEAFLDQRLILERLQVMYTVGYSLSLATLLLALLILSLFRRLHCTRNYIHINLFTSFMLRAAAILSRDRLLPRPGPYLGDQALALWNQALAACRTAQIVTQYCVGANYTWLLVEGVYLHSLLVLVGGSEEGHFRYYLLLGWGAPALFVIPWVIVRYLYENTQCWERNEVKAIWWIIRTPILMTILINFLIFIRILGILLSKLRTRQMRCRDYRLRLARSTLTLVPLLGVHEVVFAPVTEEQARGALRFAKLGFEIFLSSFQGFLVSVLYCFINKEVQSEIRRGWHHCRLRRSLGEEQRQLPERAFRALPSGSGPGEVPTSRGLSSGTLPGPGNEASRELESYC

| Binder | cAMP EC50 (1.0% HSA) [1] [nM] | cAMP Emax (1.0% HSA) [1] [%] | cAMP EC50 (1.0% HSA) [2] [nM] | cAMP EC50 (1.0% HSA) [3] [nM] | cAMP EC50 (1.0% HSA) [4] [nM] |
| --- | --- | --- | --- | --- | --- |
| Y[Aib]EGT[αMePhe(2-F)]TSDV[Aib]I[αMeL]LD[Orn]IAQ[Aib]EFIK([AEEA-AEEA-AEEA-γGlu-Decanoyl(10-(4-HOOC-PhO))])[αMeY]LIK([AEEA-AEEA-AEEA-γGlu-Decanoyl(10-(4-HOOC-PhO))])GGPSSGAPPPS-NH2 [Example 347] | 7.27 | 84.6 | 51.7 |  |  |
| Y[Aib]EGT[αMePhe(2-F)]TSDV[Aib]I[αMeL]LD[Orn]IAQ[Aib]EFIK([AEEA-γGlu-Decanoyl(10-(4-HOOC-PhO))])[αMeY]LIK([AEEA-γGlu-Decanoyl(10-(4-HOOC-PhO))])GGPSSGAPPPS-NH2 [Example 381] |  |  |  | 153 | 28 |
| Y[Aib]EGT[αMePhe(2-F)]TSDV[Aib]I[αMeL]LD[Orn]IAQ[Aib]EFIK([AEEA-AEEA-AEEA-γGlu-C14 diacid])[αMeY]LIK([AEEA-AEEA-AEEA-γGlu-C14 diacid])GGPSSGAPPPS-NH2 (N-terminus assumed; SMILES CC[C@H](C)[C@H](NC(=O)[C@H](CCCN)NC(=O)[C@H](CC(=O)O)NC(=O)[C@H](CC(C)C)NC(=O)[C@](C)(CC(C)C)NC(=O)[C@@H](NC(=O)C(C)(C)NC(=O)[C@@H](NC(=O)[C@H](CC(=O)O)NC(=O)[C@H](CO)NC(=O)[C@@H](NC(=O)[C@](C)(Cc1ccccc1F)NC(=O)[C@@H](NC(=O)CNC(=O)[C@H](CCC(=O)O)NC(=O)C(C)(C)NC(=O)[C@@H](N)Cc1ccc(O)cc1)[C@@H](C)O)[C@@H](C)O)C(C)C)[C@@H](C)CC)C(=O)N[C@@H](C)C(=O)N[C@@H](CCC(N)=O)C(=O)NC(C)(C)C(=O)N[C@@H](CCC(=O)O)C(=O)N[C@@H](Cc1ccccc1)C(=O)N[C@H](C(=O)N[C@@H](CCCCNC(=O)COCCOCCNC(=O)COCCOCCNC(=O)COCCOCCNC(=O)CC[C@H](NC(=O)CCCCCCCCCCCCC(=O)O)C(=O)O)C(=O)N[C@@](C)(Cc1ccc(O)cc1)C(=O)N[C@@H](CC(C)C)C(=O)N[C@H](C(=O)N[C@@H](CCCCNC(=O)COCCOCCNC(=O)COCCOCCNC(=O)COCCOCCNC(=O)CC[C@H](NC(=O)CCCCCCCCCCCCC(=O)O)C(=O)O)C(=O)NCC(=O)NCC(=O)N1CCC[C@H]1C(=O)N[C@@H](CO)C(=O)N[C@@H](CO)C(=O)NCC(=O)N[C@@H](C)C(=O)N1CCC[C@H]1C(=O)N1CCC[C@H]1C(=O)N1CCC[C@H]1C(=O)N[C@@H](CO)C(N)=O)[C@@H](C)CC)[C@@H](C)CC) [Example 344] | 6.78 | 87.3 | 48.3 |  |  |
